Results as given in US20230190801A1.

Target: SLAMF7 (human) (UniProt Q9NQ25)
Test: cell-based or functional assay

B1: elotuzumab (antibody, INN chains, looked up, V domains shown)
VH: EVQLVESGGGLVQPGGSLRLSCAASGFDFSRYWMSWVRQAPGKGLEWIGEINPDSSTINYAPSLKDKFIISRDNAKNSLYLQMNSLRAEDTAVYYCARPDGNYWYFDVWGQGTLVTVSS
VL: DIQMTQSPSSLSASVGDRVTITCKASQDVGIAVAWYQQKPGKVPKLLIYWASTRHTGVPDRFSGSGSGTDFTLTISSLQPEDVATYYCQQYSSYPYTFGQGTKVEIKR
B1 gave a g-NK cell-mediated cytotoxicity against elotuzumab-treated MM cell lines, correlation with SLAMF7 expression of 0.96 R^2.
